From patent US20100173352A1

Target: human CD47/IAP receptor on HUCB-EPC (human) (UniProt Q08722)
Assay: cell-based or functional assay

HUCB-EPC adhesion onto gelatin-vitronectin after pre-treatment with 40 µg/ml, compared with BSA: 14.6%
HUCB-EPC adhesion onto gelatin-vitronectin after pre-treatment with 40 µg/ml, compared with control mouse IgG1: 16.6%
B1: mouse monoclonal anti-human CD47 IgG1 (clone B6H12) (antibody, from another filing, V domains shown)
VH: EVQLVESGGDLVKPGGSLKLSCAASGFTFSGYGMSWVRQTPDKRLEWVATITSGGTYTYYPDSVKGRFTISRDNAKNTLYLQIDSLKSEDTAIYFCARSLAGNAMDYWGQGTSVTVSS
VL: DIVMTQSPATLSVTPGDRVSLSCRASQTISDYLHWYQQKSHESPRLLIKFASQSISGIPSRFSGSGSGSDFTLSINSVEPEDVGVYYCQNGHGFPRTFGGGTKLEIK
